Reference: the supplement of paper PMC9170038

Tested on: MS2 coat protein
Assay: apparent KD of MS2 coat protein; designed switch direction (-1 OFF switch, 1 ON switch): 1; higher = weaker reporter binding
How it was run: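 For each design, the apparent KD is the median over clusters of curves fitted to normalised cluster fluorescence. Clusters held RNA switches with common flanks, transcribed on Illumina chips by stalled E. coli RNA polymerase. These were titrated with SNAP-549-labelled MS2 coat protein, doubling from 0.7 or 1.5 nM to 3 µM, without input, with 200 uM small-molecule ligand, or with an oligonucleotide input.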

[1] = Eterna round: R95, input ligand: FMN 200 uM
[2] = Eterna round: R95, input ligand: microRNA oligo, concentration not stated
[3] = Eterna round: R95, input ligand: none
[4] = input ligand: microRNA oligo, concentration not stated

Sequence	apparent KD of MS2 coat protein [1] [nM]	apparent KD of MS2 coat protein [2] [nM]	apparent KD of MS2 coat protein [3] [nM]	apparent KD of MS2 coat protein (input ligand: FMN 200 uM) [nM]	apparent KD of MS2 coat protein [4] [nM]	apparent KD of MS2 coat protein (input ligand: none) [nM]
UAUAAACAUGAGGAUCACCCAUGUAAUAAUAUGGGAGGAUAUCAGAAUGUAUUUAUUUAAUGAGAAGGCCUAAUAU [Mat - Same State 1 - Mod of Eli - D68] (puzzle: Same State 1)	46.4	532	645	–	–	–
GUACAUAUUAUAGGAUAUCACGUCGUUUAGACGUGAGAAGGAUAAUCCCACAUGAAUAUUAAUACAUGAGGAUCACCCAUGUAC [SSNG1/18-A3] (Eterna round: R96, puzzle: Same State NG 1)	–	–	–	64.2	48	63.9
CGGGACAGACCCAACAUGAGGAUCACCCAUGUCCUCGCAGGUCAGGAUAUUAUUAGGAUCACCAGUGAGAAGGGACGGUGAACC (Eterna round: R96, puzzle: Same State NG 3)	–	–	–	470	281	373
AACAAUCUAUCUGAGGAUAUCAUGAAAUAAACAUGAGGAUCACCCAUGUGCAGGAAAAUUGCAUAUGAGAAGGCAGAUAGAUUGA [salish99_ss2_r3_044] (puzzle: Same State 2)	37.9	771	669	–	–	–
AACUUACUAUCUCAGGAUAUCAUGUCAAAGACAUGAGGAUCACCCAUGUACCAGGAAACUGGUUAUGAGAAGGGAGAUAGUAAGA [Mat - Same State 2 - Mod - D49] (puzzle: Same State 2)	167	128	611	–	–	–
GUGUGUUGCGGGCAGGAUAUGUACUUGAGUACAUGAGGAUCACCCAUGUGCGGGUGUUUCACCCGACAGAAGGGCCUAUCGCGAC [JL-ss2-3.25 ViennaUCT mod] (puzzle: Same State 2)	145	136	664	–	–	–
CAGAGCCCAUGGGCCUGACAUGAGGAUCACCCAUGUGGCUUUGAGGAUAUAAGCGGAAACACCGCUUAGAAGGCGAAGCCUAAC [Atxerati] (Eterna round: R96, puzzle: Same State NG 3)	–	–	–	79.5	18.7	34.3
CUAUCUACAGGUGUCAGUGCUCGUCUUAUACAUGAGGAUCACCCAUGUUAUAGCCCGGUGCUUGCGCUGGGCUGAUU [JL ViennaUCT Tearor mod 4] (puzzle: Sensor for hsa-mir-208a)	54.8	14.2	66.9	–	–	–
GCUCGUAUGAUGACCGACAUGAGGAUCACCCAUGUGUGUCGGUAGGAUAUCUAUAUUAAGGAUAUAGAGAAGGGCCCAACGAGC [SameState NG3 #18] (Eterna round: R96, puzzle: Same State NG 3)	–	–	–	114	103	158
GAGGGACAGACCAACAUGAGGAUCACCCAUGUCCUCGCAGGUCAGGAUAUUAUUAGGAUCACCAGUGAGAAGGGACGGUGAAGG (Eterna round: R96, puzzle: Same State NG 3)	–	–	–	366	227	521
GUUACAUGAGGAUCACCCAUGUAUGUGUGGGAGUAAGUGUCUUAGGAUAUCUAGUAUUUAAUUGAAGAGAAGGAAGAUUGUUGU [JMF's solution 67] (Eterna round: R96, puzzle: Same State NG 3)	–	–	–	109	87.2	108
AUUCGUUUGAUAGGAUAUCACCUUACAUGAGGAUCACCCAUGUUCACCACGCUGGUUUUUCAUACUGAGAAGGAUCUUGAUGAC [JR_SSNG2_Sub007] (Eterna round: R96, puzzle: Same State NG 2)	–	–	–	50.5	45.6	51.4
ACAUGAGGCGCAGGAUAUACAGUUGUAUAACAUGAGGACAUGACAUGAGGAUCACCCAUGUCCCAGUAGAAGGGCGAACAUGAG [Same State NG2 S2] (Eterna round: R96, puzzle: Same State NG 2)	–	–	–	172	102	144
AUCAAAGCGUGAGGAUAUAUGGGAACACGAGUCGUAGAAGGUACGUCAAUACAUGAGGAUCACCCAUGUAAAGAGGAGAACCUC [Eternabot solution 33] (Eterna round: R96, puzzle: Same State NG 1)	–	–	–	60.1	32.9	45.2
GCUGCGUUUAACGCCUACAUGAGGAUCACCCAUGUAUGUAGGCAGGAUAUCGUUUGCUUUGCAAACGAGAAGGGCUGUAGUAGC [salish99_SSNG3_R04_005] (Eterna round: R96, puzzle: Same State NG 3)	–	–	–	41.6	85	73.8
UUAGCGACGGAAGGAUAUUGGACGCUAACAUGAGGAUCACCCAUGUAGAGGUCCUACCAACAGCGCAAGAAGGUCCGAUCAGCA [Eternabot solution 13] (Eterna round: R96, puzzle: Same State NG 2)	–	–	–	22.7	8.94	13.3
UCUUGGUUUUUGCUCGUUUUUUGUGUUGAACAUGAGGAUCACCCAUGUAUUGUACGGUCCAAUUUAAUAAUGGUCCG [JMF 23] (puzzle: Sensor for hsa-mir-208a)	26.3	14.3	26.9	–	–	–
UAUAUUAUGGUAGGAUAUGUAGGAUAUGGCGAGAGCUAAGCUUGGAAGUCACUUCAGCCAGAAGGACAGAAGGACCAUAAUAUU [pwkr ssNG2 2FMN + F9.9] (Eterna round: R96, puzzle: Same State NG 2)	–	–	–	16.6	127	216
UAUUUAAUCAUAGGAUAUAGUGUGAAAUUUGGACUAGAAGGAUGUAACAUGAGGAUCACCCAUGUGGUAAGUGGGAUACAUUCC [JR_SSNG1_Sub098] (Eterna round: R96, puzzle: Same State NG 1)	–	–	–	110	75	117
AGCUAUUACGAAGGAUAUAGUGACAUGAGGAUCACCCAUGUGUACAUGAGUAAUUGUGAUCACGUCUAGAAGGUUGUACUAACA [SameState NG2 #35] (Eterna round: R96, puzzle: Same State NG 2)	–	–	–	181	165	180
CCGCUCCGUGGAGGAUAUGGGCCUGCCCGGGAUACCGAGCCUAACACAUGAGGAUCACCCAUGUCCCAGAAGGCCGCUGGAGCC [Inusaron] (Eterna round: R96, puzzle: Same State NG 2)	–	–	–	30.7	52.8	90.7
UAUUAGAUCCGAGGAUAUCCUUAUUACAAACAUGAGGAUCACCCAUGUAAAGGGAAUGAGUUGUAGGAGAAGGCGGAUUUAGUU [JR_SSNG2_Sub057] (Eterna round: R96, puzzle: Same State NG 2)	–	–	–	33.5	33	51
GUAGAACAUGAGGAUCACCCAUGUGAAGACGCAUGAGGAUAUAUACGUAAAUAGCAUACGAUAGAAGGCAUGAUAA [JR_SS001_Sub1703] (Eterna round: R96, puzzle: Same State 1)	–	–	–	–	40.6	–
AGCUAUUAAUCAGGAUAUGGUCACAUGAGGAUCACCCAUGUAUAGAUGAUAAAAUGUGGUCUACACUAGAAGGGAUUGCUAACA [SameState NG2 #59] (Eterna round: R96, puzzle: Same State NG 2)	–	–	–	89.5	78.9	106
CCGCGCUGUCGAGAGGAUAUGCGGUGAUGGACAUGAGGAUCACCCAUGUUAGCGAUAGCAUUACUGUAGAAGGCUCUACGGCGGC [JL-ss2-3.09 ViennaUCT mod] (puzzle: Same State 2)	12.2	10.4	11.9	–	–	–
AGAUCAUGACGAGGAUAUGCAACAUGAGGAUCACCCAUGUAUGUUGCAGGACGCGUACGUCCAAUGUAGAAGGCGUCGUGGUCA [JL SSNG2 1.06] (Eterna round: R96, puzzle: Same State NG 2)	–	–	–	40.2	146	150
GUUACAUGAGGAUCACCCAUGUAUGUGUGGGAGUAAGUGUCUUAGGAUAUCUAGUGUUUAAUUUAAGAGAAGGAAGAUUGUUGU [JMF's solution 53] (Eterna round: R96, puzzle: Same State NG 3)	–	–	–	134	96.8	116
UAAGGACAUGAGGAUCACCCAUGUGCUUCAUAUGGAGAAUCUCAGGAUAUGCUGAGGAUCACCCAGCAGAAGGGAGAUCCGAGG (Eterna round: R96, puzzle: Same State NG 3)	–	–	–	71.9	93	120
AUCAAAACAAGUUGCAGUGUUCGUCUUUCACAUGAGGAUCACCCAUGUAAUAGCCCAGCGGAAGCACUCGGGCCACC [Arzasola] (puzzle: Sensor for hsa-mir-208a)	26.8	28.1	31.2	–	–	–
GUUAGGAAUCUAGCAAACAUGAGGAUCACCCAUGUAAGUGGGAAGGAUAUGGUACAGAAACUGUACCAGAAGGUCUUAUUAAUU [Omei SS(NG) 3 AV1] (Eterna round: R96, puzzle: Same State NG 3)	–	–	–	128	246	306
